{"source": "patent US20220119792", "proteins": {"B1": {"name": "reverse caspase-3 (protein)", "chain": "MIETDSGVDDDMACHKIPVEADFLYAYSTAPGYYSWRNSKDGSWFIQSLCAMLKQYADKLEFMHILTRVNRKVATEFESFSFDATFHAKKQIPCIVSMLTKELYFYHDEVDGENTENSVDSKSIKNLEPKIIHGSESMDSGISLDNSYKMDYPEMGLCIIINNKNFHKSTGMTSRSGTDVDAANLRETFRNLKYEVRNKNDLTREEIVELMRDVSKEDHSKRSSFVCVLLSHGEEGIIFGTNGPVDLKKITNFFRGDRCRSLTGKPKLFIIQACRGTELDCGIETD"}}, "key": {"[1]": {"molecular_target": "HAK-DEVD-hGH expressed from pAPT-Y-HAK-DEVD-hGH-Lacuv5-rev-CASP3", "sequence (chain, as listed by the source)": "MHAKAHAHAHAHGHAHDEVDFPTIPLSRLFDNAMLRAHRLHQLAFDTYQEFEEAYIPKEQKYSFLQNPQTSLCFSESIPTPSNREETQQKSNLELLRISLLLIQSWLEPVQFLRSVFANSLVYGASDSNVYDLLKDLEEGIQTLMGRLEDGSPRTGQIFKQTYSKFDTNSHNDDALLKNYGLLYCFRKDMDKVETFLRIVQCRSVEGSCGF"}, "[2]": {"molecular_target": "KH6-DEVD-hGH expressed from pAPT-Y-KH6-DEVD-hGH-Lacuv5-rev-CASP3", "sequence (chain, as listed by the source)": "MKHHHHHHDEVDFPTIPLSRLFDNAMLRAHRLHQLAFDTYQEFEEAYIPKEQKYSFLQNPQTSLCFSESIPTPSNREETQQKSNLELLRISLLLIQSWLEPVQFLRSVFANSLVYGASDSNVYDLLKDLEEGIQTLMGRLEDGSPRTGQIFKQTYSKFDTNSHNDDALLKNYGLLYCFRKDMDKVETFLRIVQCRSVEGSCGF"}, "[3]": {"molecular_target": "H6-DEVD-hGH expressed from pAPT-Y-H6-DEVD-hGH-Lacuv5-rev-CASP3", "sequence (chain, as listed by the source)": "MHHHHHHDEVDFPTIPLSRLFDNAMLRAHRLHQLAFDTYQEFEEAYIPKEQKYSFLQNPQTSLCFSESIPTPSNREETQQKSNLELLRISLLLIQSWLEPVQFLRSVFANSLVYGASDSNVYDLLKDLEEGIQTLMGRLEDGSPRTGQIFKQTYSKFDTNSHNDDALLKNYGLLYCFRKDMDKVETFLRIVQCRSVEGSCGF"}, "[4]": {"molecular_target": "AH6-DEVD-hGH expressed from pAPT-Y-AH6-DEVD-hGH-Lacuv5-rev-CASP3", "sequence (chain, as listed by the source)": "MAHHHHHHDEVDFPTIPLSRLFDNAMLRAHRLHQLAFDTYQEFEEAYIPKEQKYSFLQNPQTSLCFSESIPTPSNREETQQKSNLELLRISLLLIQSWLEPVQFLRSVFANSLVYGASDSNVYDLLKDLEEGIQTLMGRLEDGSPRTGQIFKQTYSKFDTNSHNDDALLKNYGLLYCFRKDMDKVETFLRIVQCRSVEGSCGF"}, "[5]": {"molecular_target": "NH6-DEVD-hGH expressed from pAPT-Y-NH6-DEVD-hGH-Lacuv5-rev-CASP3", "sequence (chain, as listed by the source)": "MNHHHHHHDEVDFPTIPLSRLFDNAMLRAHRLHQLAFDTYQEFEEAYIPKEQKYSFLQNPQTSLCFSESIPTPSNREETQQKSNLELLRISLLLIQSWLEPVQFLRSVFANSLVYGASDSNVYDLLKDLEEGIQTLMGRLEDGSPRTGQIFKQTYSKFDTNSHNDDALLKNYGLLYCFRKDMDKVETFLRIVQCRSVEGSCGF"}, "[6]": {"molecular_target": "H6-DEVD-hGH expressed from pETDuet-H6-DEVD-hGH-T7-rev-CASP3", "sequence (chain, as listed by the source)": "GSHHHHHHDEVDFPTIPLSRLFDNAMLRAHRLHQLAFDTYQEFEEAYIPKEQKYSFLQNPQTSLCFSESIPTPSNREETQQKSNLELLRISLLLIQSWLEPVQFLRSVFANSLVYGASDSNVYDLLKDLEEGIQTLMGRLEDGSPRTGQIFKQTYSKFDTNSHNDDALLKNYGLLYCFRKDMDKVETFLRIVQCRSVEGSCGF"}, "[7]": {"molecular_target": "DH6-DEVD-hGH expressed from pAPT-Y-DH6-DEVD-hGH-Lacuv5-rev-CASP3", "sequence (chain, as listed by the source)": "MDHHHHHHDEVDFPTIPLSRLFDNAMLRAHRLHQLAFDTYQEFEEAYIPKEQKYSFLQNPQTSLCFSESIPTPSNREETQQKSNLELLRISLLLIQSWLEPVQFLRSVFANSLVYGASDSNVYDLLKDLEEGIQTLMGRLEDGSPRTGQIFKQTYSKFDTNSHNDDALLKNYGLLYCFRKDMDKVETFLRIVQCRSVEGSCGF"}}, "data": [{"protein": "B1", "values": [{"measurement": "cleavage of synthetic tag (Western blot, co-expression in E. coli)", "setting": "[1]", "value": "99.30% or more of the synthetic tag was cleaved"}, {"measurement": "cleavage of synthetic tag (Western blot, co-expression in E. coli)", "setting": "[2]", "value": "99.30% or more of the synthetic tag was cleaved"}, {"measurement": "cleavage of synthetic tag (Western blot, co-expression in E. coli)", "setting": "[3]", "value": "99.30% or more of the synthetic tag was cleaved"}, {"measurement": "cleavage of synthetic tag (Western blot, co-expression in E. coli)", "setting": "[4]", "value": "99.30% or more of the synthetic tag was cleaved"}, {"measurement": "cleavage of synthetic tag (Western blot, co-expression in E. coli)", "setting": "[5]", "value": "99.30% or more of the synthetic tag was cleaved"}, {"measurement": "cleavage of N-terminal methionine and synthetic tag (Western blot, co-expression in E. coli)", "setting": "[6]", "value": "96.12% of the N-terminal methionine of the growth hormone protein and the synthetic tag was cleaved"}, {"measurement": "cleavage of synthetic tag (Western blot, co-expression in E. coli)", "setting": "[7]", "value": "99.30% or more of the synthetic tag was cleaved"}]}]}
